# Test results from US20230312753A1 (IMMUNORIZON, published 2023).
# T1: h5T4-His (recombinant human 5T4) (human, UniProt Q13641 32-355, limits assumed)
# T1 construct: Bought protein; also called recombinant 5T4
# T1 sequence (looked up): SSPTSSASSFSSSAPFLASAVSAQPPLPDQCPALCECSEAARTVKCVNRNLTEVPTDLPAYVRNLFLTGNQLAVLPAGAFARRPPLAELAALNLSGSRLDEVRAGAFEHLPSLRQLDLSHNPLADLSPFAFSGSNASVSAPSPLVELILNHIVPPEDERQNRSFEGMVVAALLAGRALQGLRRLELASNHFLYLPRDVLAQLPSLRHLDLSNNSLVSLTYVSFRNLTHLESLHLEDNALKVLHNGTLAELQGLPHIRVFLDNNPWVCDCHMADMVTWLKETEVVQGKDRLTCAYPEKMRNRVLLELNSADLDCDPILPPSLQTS
# T2: 5T4 on cells (NCI-H226 endogenous; CHO over-expressing 5T4) (UniProt Q13641 32-420, limits assumed)
# T2 construct: whole, on cells
# T2 sequence (looked up): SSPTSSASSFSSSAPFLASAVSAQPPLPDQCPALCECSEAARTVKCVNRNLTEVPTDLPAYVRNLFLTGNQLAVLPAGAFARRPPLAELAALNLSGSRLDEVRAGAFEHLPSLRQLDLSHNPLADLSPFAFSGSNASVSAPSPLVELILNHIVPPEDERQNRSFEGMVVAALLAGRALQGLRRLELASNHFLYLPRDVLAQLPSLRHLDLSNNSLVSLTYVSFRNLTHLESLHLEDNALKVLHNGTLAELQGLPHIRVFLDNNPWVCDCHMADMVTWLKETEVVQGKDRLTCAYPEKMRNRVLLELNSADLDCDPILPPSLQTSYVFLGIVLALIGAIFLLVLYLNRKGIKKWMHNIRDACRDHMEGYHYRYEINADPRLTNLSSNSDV
# B1: IM-1093 Tribody, NKG2A mutant variant (other)
# heavy: GGSGGSEVQLVESGGGLVQPGGSLRLSCAASGFTFNTYAMNWVRQAPGKGLEWVARIRSKYNNYATYYADSVKDRFTISRDDSKNTLYLQMNSLRAEDTAVYYCVRHGNFGNSYVSWFAYWGQGTMVTVSSASTKGPSVFPLAPSSKSTSGGTAALGCLVKDYFPEPVTVSWNSGALTSGVHTFPAVLQSSGLYSLSSVVTVPSSSLGTQTYICNVNHKPSNTKVDKRVEPKSCPPCGGGGSDIQMTQSPSSLSASVGDRVTITCRASENIYSALAWYQQKPGKAPKLLIYNAKTLAEGVPSRFSGSGSGTDFTLTISSLQPEDFATYYCQHHAGTPRTFGGGTKVEIKGGGGSGGGGSGGGGSGGGGSQVQLVQSGAEVKKPGASVKVSCKASGYTFTSYWMNWVRQAPGQGLEWMGRIDPYDSETHYAQKLQGRVTMTTDTSTSTAYMELRSLRSDDTAVYYCARGGYDFDVDTLYWFFDVWGQGTTVTVSS
# light: GGSGGSQAVVTQEPSLTVSPGGTVTLTCRSSTGAVTTSNYANWVQQKPGQAPRGLIGGTNKRAPGTPARFSGSLLGGKAALTLSGVQPEDEAEYYCALWYSNLWVFGGGTKLTVLGQPKAAPSVTLFPPSSEELQANKATLVCLISDFYPGAVTVAWKADSSPVKAGVETTTPSKQSNNKYAASSYLSLTPEQWKSHRSYSCQVTHEGSTVEKTVAPTECPPCSGGGSDIQMTQSPSSLSASVGDRVTITCRASQGISNYLAWFQQKPGKAPKSLIYRANRLQSGVPSRFSGSGSGTDFTLTISSLQPEDVATYYCLQYDDFPWTFGQGTKLEIKGGGGSGGGGSGGGGSGGGGSQVQLVQSGAEVKKPGASVKVSCKASGYTFTSFWMHWVRQAPGQGLEWMGRIDPNRGGTEYNEKAKSRVTMTADKSTSTAYMELSSLRSEDTAVYYCAGGNPYYPMDYWGQGTTVTVSS
# notes: also called NKG2A mutated Tribody
# Experiments:
# [1] = molecular target: T3, NKG2A on NK92 cells (endogenous) (UniProt P26715 1-233, limits assumed); test: FACS on NK92 cells (FIG. 45C)
# T3 construct: whole, on cells
# Experimental: (§1) Suspension cultured cells was harvested directly, and adherent cell were digested using TrypLE Express Enzyme (cat: 12604-013, supplier Life technologies). Centrifuge at 1000 rpm for 5 min and discard the supernatant. Cells are suspended at a concentration of 2×10⁶/mL in FACS buffer (2% FBS in PBS) and add 100 µL/well of cell suspension to the plate (cat #3799, supplier Corning). Centrifuging the plates at 2000 rpm for 5 min and discard the supernatant. Re-suspend the cells in 100 µL/well of Tribody set antibodies (400 nM start, 4-fold dilution, 8 point including 0 point) and incubate the plate for 60 min at 4° C. Centrifuge the plate at 2000 rpm, 4° C. for 5 min and discard supernatant. Then wash the cells 3 times with 170 µL FACS buffer. Re-suspend the cells at 100 µL/well with secondary antibody (goat anti-human Ig Fab-FITC, Cat # 2085-02, Southern biotech) with 1:400 dilution and incubate the plate for 30 min at 4° C. in dark. Centrifuge the plate at 2000 rpm, 4° C. for 5 min and discard supernatant. […] The fluorescence intensity of the staining was measured using flow cytometer (BD, FACSVerse). The geometric mean fluorescence intensity (GMFI; median fluorescence intensity (MFI)) of set antibodies staining was calculated (BD FACSuite software). Dose-response curves were generated and EC50s for thetrispecific variants binding were calculated using GraphPad Prism software.
# [2] = molecular target: T1, h5T4-His (recombinant human 5T4); test: ELISA on coated h5T4-His (FIG. 43B)
# Experimental: (§2) Methods: ELISA binding of Tribody/ProTribody antibody constructs to antigens: Dilute target protein (hCD3epsilon-His (cat # 10977-H08S, supplier Sino Biological); h5T4-His (cat# 19845-H08H, supplier Sino Biological); NKG2A-CD94-ECD-hFc, Lot:20200724002, provided by CP; or NKG2D-ECD-hFc, Lot: 20200413002, provided by CP) into PBS with final concentration of 0.01 µg/mL for hCD3epsilon-His, 0.3 µg/mL for h5T4-His, 1 µg/mL for NKG2A-CD94-ECD-hFc and 0.7 µg/mL for hNKG2D-ECD-hFc respectively and coat 100 µL/well on ELISA plate (cat: 9018, supplier Corning) respectively. Incubate O/N, 4° C. The plates were blocked with 250 µL 1% BSA in PBST for 1 hr at 37° C.Wash 4 times with PBST. All the washes are done using Biotek (Elx 405). All the Tribody set antibodies were diluted to 400 nM and make 4-fold serially dilutions (12 points, including 0 point). Add 100 µL/well diluted antibody constructs solution to plate, incubate for 1 hr at 37° C.Wash 4 times with PBST. Add 100 µL/well anti-human kappa light chain-HRP (1:10000), incubate for 0.5 hr at 37° C. Wash 4 times with PBST. 100 µL/well of TMB substrate was added and incubated at room temperature for 5 min. 100 µL/well of 1N HCl to terminate reaction. Plates were read using ELISA plate reader at 450 nm wavelength (instrunet SpectraMax M5e). Data Analysis was performed using Graphpad prism 5 software by using nonlinear regression (curve fit): log (agonist) vs. response, agonist is antibody concentration (nM) and response is OD value.
# [3] = molecular target: T4, hCD3epsilon-His (recombinant human CD3 epsilon) (human, UniProt P07766 23-126); test: ELISA on coated hCD3epsilon-His (FIG. 43A)
# T4 construct: Bought protein; also called recombinant hCD3ε protein; human CD3ε
# Experimental: as §2, with “Data Analysis was performed using Graphpad prism 5 software by using nonlinear regression (curve fit): log (agonist) vs. response, agonist is antibody concentration (nM) and response is OD value.” left out
# NKG2A-CD94-ECD-hFc = molecular target: T5, NKG2A-CD94-ECD-hFc (human, UniProt P26715 94-233; Q13241 32-179, limits assumed); test: ELISA on coated NKG2A-CD94-ECD-hFc (FIG. 43C)
# T5 construct: extracellular domain; Lot 20200724002, 'provided by CP'; the two-chain layout here is only the reading of the name; also called human NKG2A (recombinant); NKG2A antigen; not shown: human Fc (hFc)
# Experimental: as §2
# [4] = molecular target: T6, human CD3 epsilon on cells (Jurkat T cells, endogenous) (human, UniProt P07766 23-207); test: FACS on Jurkat T cells, endogenous hCD3ε (FIG. 45A)
# T6 construct: whole, on cells; On cells CD3 epsilon stands in the TCR/CD3 complex; only the epsilon chain is named as target; also called hCD3ε on Jurkat; CD3ε expressing cells
# Experimental: as §1, with “buffer.” for “buffer. Re-suspend the cells at 100 µL/well with secondary antibody (goat anti-human Ig Fab-FITC, Cat # 2085-02, Southern biotech) with 1:400 dilution and incubate the plate for 30 min at 4° C. in dark. Centrifuge the plate at 2000 rpm, 4° C. for 5 min and discard supernatant.”
# Results: The expressed trispecific constructs were analyzed for their binding to cells expressing endogenous CD3ε, 5T4 and NKG2A/NKG2D.
# [5] = molecular target: T7, NKG2A/CD94 on CHO cells (CHOK1-NKG2A-CD94) (human, UniProt P26715 1-233; Q13241 1-179, limits assumed); test: FACS on CHO cells over-expressing NKG2A/CD94 (FIG. 45E)
# T7 construct: whole, on cells; also called CHO cells over-expressing NKG2A/CD94; CHO cell line over expressing ectopic NKG2A
# Experimental: (§3) Then wash the cells 3 times with 170 µL FACS buffer. Re-suspend the cells at 100 µL/well with secondary antibody (goat anti-human Ig Fab-FITC, Cat # 2085-02, Southern biotech) with 1:400 dilution and incubate the plate for 30 min at 4° C. in dark. Centrifuge the plate at 2000 rpm, 4° C. for 5 min and discard supernatant. Then wash the cells 3 times with FACS buffer and analyze the sample with FACS verse. The fluorescence intensity of the staining was measured using flow cytometer (BD, FACSVerse). The geometric mean fluorescence intensity (GMFI; median fluorescence intensity (MFI)) of set antibodies staining was calculated (BD FACSuite software). Dose-response curves were generated and EC50s for thetrispecific variants binding were calculated using GraphPad Prism software.
# (§4) Results: The expressed trispecific constructs were analyzed for their binding to cells expressing endogenous CD3ε, 5T4 and NKG2A/NKG2D. […] (FIG. 45F).
# [6] = molecular target: T2, 5T4 on cells (NCI-H226 endogenous; CHO …); test: FACS on CHO cells over-expressing ectopic 5T4 (FIG. 45D)
# Experimental: as §3, §4
# T3 sequence (P26715 whole entry): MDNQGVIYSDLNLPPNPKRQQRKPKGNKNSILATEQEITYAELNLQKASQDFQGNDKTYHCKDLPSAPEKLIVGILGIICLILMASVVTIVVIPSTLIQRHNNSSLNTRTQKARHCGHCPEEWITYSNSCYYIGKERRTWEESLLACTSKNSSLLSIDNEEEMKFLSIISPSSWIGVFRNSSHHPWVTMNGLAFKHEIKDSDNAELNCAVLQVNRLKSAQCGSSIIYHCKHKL
# T7 sequence (P26715 whole entry, chain 1 of 2): as the sequence (P26715 whole entry) above
# T7 sequence (Q13241 whole entry, chain 2 of 2): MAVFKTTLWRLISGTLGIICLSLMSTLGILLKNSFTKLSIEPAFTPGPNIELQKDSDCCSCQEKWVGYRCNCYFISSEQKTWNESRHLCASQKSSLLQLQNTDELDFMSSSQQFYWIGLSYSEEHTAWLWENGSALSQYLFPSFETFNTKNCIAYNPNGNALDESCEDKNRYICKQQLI
# T6 sequence (P07766 23-207): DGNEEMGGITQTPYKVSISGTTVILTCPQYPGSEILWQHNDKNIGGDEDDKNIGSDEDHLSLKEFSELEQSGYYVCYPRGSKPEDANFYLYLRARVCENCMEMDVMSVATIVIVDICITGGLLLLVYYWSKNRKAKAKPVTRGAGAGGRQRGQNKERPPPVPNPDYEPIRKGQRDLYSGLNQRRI
# T5 sequence (P26715 94-233 limits assumed, chain 1 of 2): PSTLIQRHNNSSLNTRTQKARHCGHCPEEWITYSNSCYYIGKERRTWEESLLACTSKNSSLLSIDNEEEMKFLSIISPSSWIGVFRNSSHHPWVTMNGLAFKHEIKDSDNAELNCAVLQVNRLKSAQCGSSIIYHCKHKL
# T5 sequence (Q13241 32-179 limits assumed, chain 2 of 2): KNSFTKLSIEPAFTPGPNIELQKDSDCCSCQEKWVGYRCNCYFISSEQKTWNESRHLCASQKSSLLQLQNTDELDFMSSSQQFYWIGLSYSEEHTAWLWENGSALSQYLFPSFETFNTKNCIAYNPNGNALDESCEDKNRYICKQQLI
# T4 sequence (P07766 23-126 limits assumed): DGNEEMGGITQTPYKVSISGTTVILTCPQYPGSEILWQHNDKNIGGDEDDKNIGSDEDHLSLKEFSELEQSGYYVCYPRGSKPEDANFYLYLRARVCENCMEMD
binder,measurement,setting,value
B1,binding result,[1],no binding (tested: dilution series from 400 nM)
same,EC50,[2],12 nM
same,EC50,[3],1.84 nM
same,binding result,NKG2A-CD94-ECD-hFc,no binding (tested: dilution series from 400 nM)
same,EC50,[4],1.3 nM
same,binding result,[5],no binding (tested: dilution series from 400 nM)
same,EC50,[6],1.3 nM
